Article doi:10.1101/491043 (bioRxiv, 2018)
Where “and” joins values, the source holds several entries; their conditions need not be identical. Equal values may be shown once.

Molecular target: the molecule itself

B1: M. tuberculosis ClpX (enzyme)
chain: not shown
B1 was tested, and the “stoichiometry N” value was 6 and 2.
